Laboratory results taken from patent US6509447B1, “G protein chimeras and methods of screening compounds” (Glaxo Welcome Inc., priority 1997, dated 2003).

Columns and labels:
Format in all cases: cell-based
[1] = target: T1, purinergic nucleotide P2Y1 receptor (Homo sapiens, UniProt P47900); test: CPRG assay, MMY11 cells expressing P2Y1 receptor plus Gα subunit; set-up: key: weak activation insufficient to carry out curve-fitting was detected; NC: no coupling was detected
T1 construct: expressed in transfected cells; host or cells: Saccharomyces cerevisiae strain MMY11, plasmid pDT-PGK-P2Y1
T1 sequence (P47900 whole entry): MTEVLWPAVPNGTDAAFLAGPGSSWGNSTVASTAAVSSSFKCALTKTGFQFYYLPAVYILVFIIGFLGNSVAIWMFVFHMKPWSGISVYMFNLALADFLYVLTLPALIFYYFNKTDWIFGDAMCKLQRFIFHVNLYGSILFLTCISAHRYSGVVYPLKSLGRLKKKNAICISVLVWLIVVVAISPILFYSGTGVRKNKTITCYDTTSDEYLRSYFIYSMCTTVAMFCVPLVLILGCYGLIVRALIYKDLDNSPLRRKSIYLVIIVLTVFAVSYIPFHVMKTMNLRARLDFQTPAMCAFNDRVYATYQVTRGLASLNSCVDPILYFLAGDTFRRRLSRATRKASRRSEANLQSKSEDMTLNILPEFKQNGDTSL
Procedure: (§1) Assay for combined FUS1-lacZ and FUS1-HIS3 Expression. In vivo assays of reporter gene induction (CPRG assays) were carried out by suspending cells to 0.02 OD600 in 200 μl SC-glucose (2%) lacking tryptophan, uracil and histidine. This medium was supplemented with agonists, and additionally 10 mM 3-aminotriazole and the β-galactosidase (lacZ) substrate chlorophenolred-β-D-galactopyranoside (CPRG; Boehringer) to a concentration of 0.1 mg/ml. To visualise the colour change reaction, the medium was buffered to pH 7 with 0.1 M sodium phosphate. The assay was conducted in a 96-well microtitre plate format. Plates were incubated for 24 hours without agitation, and absorbance at 570 nm was determined using a Victor microtitre plate reader (Wallac). EC50 values (+/−standard error) were estimated by curve-fitting, using the Robosage software package.
(§2) MMY11 was used in an experiment in which cells were transformed with pairs of plasmids as before, one to express a Gα subunit and the other a receptor expression construct. […] Where pheromone response pathway activation was detected, the agonist concentration required to yield a half-maximal response (EC50+/−standard error; all values in nM except where otherwise indicated) was determined by curve-fitting, and is shown in Table 4A. Where no coupling was detected, this is also indicated (NC).

[2] = target: T2, somatostatin SST2 receptor (Homo sapiens, UniProt P30874); test: Reverse halo assay for FUS1-HIS3 expression, MMY9 cells, SST2; settings: MMY9 cells with pRS314-GPA1 and SST2 receptor, 3 nmol somatostatin-14
T2 construct: expressed in transfected cells; host or cells: Saccharomyces cerevisiae strains MMY9 and MMY11, plasmid pFL61-SST2, PGK1 promoter
T2 sequence (P30874 whole entry): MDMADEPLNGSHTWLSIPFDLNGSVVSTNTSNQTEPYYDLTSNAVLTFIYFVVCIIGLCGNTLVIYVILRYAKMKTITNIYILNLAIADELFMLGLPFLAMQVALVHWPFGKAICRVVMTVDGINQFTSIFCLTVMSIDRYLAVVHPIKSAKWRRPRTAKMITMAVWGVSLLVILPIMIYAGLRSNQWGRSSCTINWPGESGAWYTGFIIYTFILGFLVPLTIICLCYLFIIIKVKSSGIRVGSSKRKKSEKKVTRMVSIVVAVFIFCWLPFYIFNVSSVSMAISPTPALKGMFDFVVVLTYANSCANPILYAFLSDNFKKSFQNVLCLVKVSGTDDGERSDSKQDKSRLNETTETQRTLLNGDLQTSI
Procedure: Assay for FUS1-HIS3 Expression. Reverse halo assays were carried out by growing MMY9 cells to early stationary phase (OD600≈4) in liquid SC-glucose (2%) medium lacking tryptophan and uracil. A uniform layer of cells (5×10^7) was plated to 22.5 cm by 22.5 cm bioassay dishes (Nunc) in 100 ml SC-glucose agar (1%) equilibrated to 50° C. This medium lacked tryptophan, uracil and histidine, and was supplemented with 10 mM 3-aminotriazole, and buffered to pH 7.0 with 0.1M sodium phosphate. Antibiotic discs were placed on the solidified agar, and a volume of agonist solution (1-5 μl) was applied to each disc. Plates were incubated at 30° C. for 3 days.
The four receptors were: the melatonin ML1B receptor, the serotonin 5HT1A receptor, the somatostatin SST2 receptor and the purinergic nucleotide receptor, P2Y2. […] Activation of the pheromone response pathway was monitored with two integrated reporter genes: […] allowing a growth readout in medium lacking histidine, and FUS1-lacZ allowing a β-galactosidase readout. […] Agonist-dependent activation of FUS1-HIS3 was determined by reverse halo assay in which agonists were applied to the filter discs in the arrangement shown in panel A, in quantities as follows: 3 nmol of somatostatin-14 (S-14); 40 nmol of melatonin (Mel); 3 nmol of α-factor; 100 nmol of UTP; 40 nmol of serotonin (5-HT). […]

serotonin 5HT1A receptor = target: T3, serotonin 5HT1A receptor (Homo sapiens, UniProt P08908); test: CPRG assay, MMY11 cells expressing 5-HT1A receptor plus Gα subunit; set-up: key: weak activation insufficient to carry out curve-fitting was detected; NC: no coupling was detected
T3 construct: expressed in transfected cells; host or cells: Saccharomyces cerevisiae strains MMY9 and MMY11, plasmid pDT-PGK-5-HT1A
T3 sequence (P08908 1-422): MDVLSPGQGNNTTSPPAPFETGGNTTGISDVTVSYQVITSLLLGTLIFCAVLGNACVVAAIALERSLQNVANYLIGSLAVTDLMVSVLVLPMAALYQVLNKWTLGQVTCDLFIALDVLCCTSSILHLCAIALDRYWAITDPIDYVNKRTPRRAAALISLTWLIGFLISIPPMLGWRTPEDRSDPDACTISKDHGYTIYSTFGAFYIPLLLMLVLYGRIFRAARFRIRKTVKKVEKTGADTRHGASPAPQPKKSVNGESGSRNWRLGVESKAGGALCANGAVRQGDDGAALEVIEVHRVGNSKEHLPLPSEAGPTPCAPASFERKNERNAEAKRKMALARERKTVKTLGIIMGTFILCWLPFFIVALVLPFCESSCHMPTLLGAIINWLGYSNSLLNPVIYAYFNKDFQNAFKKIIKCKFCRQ
Procedure: as §1, §2

B1: Gpa1p: endogenous yeast Gα subunit, product of the GPA1 gene (protein, UniProt P08539 2-472, looked up)
Guanine nucleotide-binding …: GCTVSTQTIGDESDPFLQNKRANDVIEQSLQLEKQRDKNEIKLLLLGAGESGKSTVLKQLKLLHQGGFSHQERLQYAQVIWADAIQSMKILIIQARKLGIQLDCDDPINNKDLFACKRILLKAKALDYINASVAGGSDFLNDYVLKYSERYETRRRVQSTGRAKAAFDEDGNISNVKSDTDRDAETVTQNEDADRNNSSRINLQDICKDLNQEGDDQMFVRKTSREIQGQNRRNLIHEDIAKAIKQLWNNDKGIKQCFARSNEFQLEGSAAYYFDNIEKFASPNYVCTDEDILKGRIKTTGITETEFNIGSSKFKVLDAGGQRSERKKWIHCFEGITAVLFVLAMSEYDQMLFEDERVNRMHESIMLFDTLLNSKWFKDTPFILFLNKIDLFEEKVKSMPIRKYFPDYQGRVGDAEAGLKYFEKIFLSLNKTNKPIYVKRTCATDTQTMKFVLSAVTDLIIQQNLKKIGII
coupling class where no EC50 could be fitted [1]: NC | agonist-dependent activation of FUS1-HIS3 (halo of cell growth) [2]: responded to somatostatin | coupling class where no EC50 could be fitted (serotonin 5HT1A receptor): weak
